Sequences and labels used below:
T1: human CD22 domain5-7-His (human, UniProt P20273 414-687)
T1 construct: also called hCD22 domain5-7-His; not shown: His tag
T1 sequence: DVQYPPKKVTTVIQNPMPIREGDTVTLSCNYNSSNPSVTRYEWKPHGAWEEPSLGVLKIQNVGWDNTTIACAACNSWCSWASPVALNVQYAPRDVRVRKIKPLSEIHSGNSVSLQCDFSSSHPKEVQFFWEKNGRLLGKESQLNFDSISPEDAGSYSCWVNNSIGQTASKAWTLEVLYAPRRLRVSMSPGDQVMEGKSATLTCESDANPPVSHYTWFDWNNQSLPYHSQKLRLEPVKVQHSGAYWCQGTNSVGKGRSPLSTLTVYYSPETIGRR

B1: F1.17.1 (antibody, human IgG1, kappa, V domains shown)
VH: QVQLKESGPGLVAPSQSLSITCTVSGFSLSRYTVHWVRQPPGKGLEWLGMIWGGGSTDYNSALKSRLSISKDNSKSQVFLKMNSLQTDDTAMYYCARPHDFDAGGFAYWGQGTLVTVSA
VL: QIVLTQSPAILSTSPGEKVTMTCSASSRVNYMYWYQQKPGSSPRLLIYDTSNLASGVPVRFSGSGSGTSYSLTISRMEAEDAATYYCQQWTSYPLTFGAGTKLELKR
notes: Human-murine chimeric IgG1, kappa
B2: F1.224.1 (antibody, human IgG1, kappa, V domains shown)
VH: EVLLHQSGPELVKPGASVKISCKASGYTFTDFNMDWVRQRHGQSLEWIGDVNPNNGGTIYNQKFKGKATLTVDKSSSTVYMDLRSLTSDDTAVYYCVRLGTSDYGEAWFISWGQGTVVTVSA
VL: DIVLTQSPASLAVSLGQRATISCRASQSVSTPRYSFMHWYQQKPGQPPKLLIKYASNLESGFPARFTGSGSGTDFTLNIHPVEEEDTAAYYCQQSWAIPWTFGGGTKLEIKR
notes: as for B1
B3: F1.216.2 (antibody, human IgG1, kappa, V domains shown)
VH: QVQLQQSGPEVVRPGASVKISCKASGYAFSSSWMNWMKQRPGKALEWIGRIYPGDGDTNYSGEFKVKATLTADKSSSTAYMQLSSLTSEDSAVYFCAREGSYYSNPWYFDYWGQGTTLTVSS
VL: DVLVTQTPLSLPVSLGDQASISCRSSQSIVQSNGDTYLEWYLQKPGQSPKLLIYKVSNRFSGVPDRFSGSGSGTDFTLKISRVEAEDLGVYYCFQGSHVPFTFGSGTKLEIKR
notes: as for B1
B4: HA22-hIgG1 (antibody, V domains shown)
VH: EVQLVESGGGLVKPGGSLKLSCAASGFAFSIYDMSWVRQTPEKCLEWVAYISSGGGTTYYPDTVKGRFTISRDNAKNTLYLQMSSLKSEDTAMYYCARHSGYGTHWGVLFAYWGQGTLVTVSA
VL: DIQMTQTTSSLSASLGDRVTISCRASQDISNYLNWYQQKPDGTVKLLIYYTSILHSGVPSRFSGSGSGTDYSLTISNLEQEDFATYFCQQGNTLPWTFGCGTKLEIKR
B5: F1.120.15 (antibody, human IgG1, kappa, V domains shown)
VH: QVQLQQSGPELVKPGASVKISCKASGNAFSNSWMNWVKQRPGKGLEWIGRVYSEDGDTQYNGKFRDKATLTADRSTSTAYMQLSSLTSEDSAVYFCARWLIYYGTYGAMDYWGQGTSVTVSS
VL: B4 VL with S30N, Q37H, Y50F, I53R, L54P, H55Y, F83I, C100G
notes: as for B1
B6: F2.205.9 (antibody, human IgG1, lambda, V domains shown)
VH: QVTLKESGPGILQPSQTLSLTCSFSGFSLSTSGMGVGWIRQPSGKGLEWLAHIWWDDDEYYNPALKSRLTISKDTSKNQVFLKIANVDTADTATYYCARISIPYGYYDWFFDVWGTGTTVTVSA
VL: QAVVTQESALTTSPGETVTLTCRSSTGAVTTRNYANWVQEKPDHLFTGLIGGTNNRAPGVPARFSGSLIGDKAALTITGAQTEDEAIYFCALWYSNHFIFGSGTKVTVLG
notes: Human-murine chimeric IgG1, lambda
B7: F1.105.11 (antibody, human IgG1, kappa, V domains shown)
VH: EVQLQQSGPVLVKPGASVKMSCKASGYTFSDYFMNWVKQSHGKSLEWIGIINSYSGGTSYNQKFKGKATLTVDKSSSTAYMELNSLTSEDSAVYYCARWMDYWGQGTSVTVSS
VL: DVQITQSPSYLAASPGETITINCRTSESISKHLAWYQEKPGKTNKLLIYSGSTLQSGIPSRFSGSGSGTDFTLTISSLEPEDFAMYYCQQHNEYPWTFGGGTKLEIKR
notes: as for B1
B8: F1.200.11 (antibody, human IgG1, kappa, V domains shown)
VH: QNQLVQSGPELKKPGETVKISCKASGYTFTTAGMQWVQKMPGKGFKWIGWINTLSGEPKYAEDFKGRFAFSLETSATTAYLQISNLKNEDTATYFCARAYYSNLYWYFDVWGTGTTVTVSS
VL: DIVMTQSQKFMSTTVGDRVTITCKASQNVVTAVAWYQQKPGQSPKVLIYSASNRYSGVPDRFTGSGSGTDFTLTISNMHSEDLANYFCHQYSSYPFTFGSGTKLEIKR
notes: as for B1

Residue numbers refer to the chain shown, from its start.

The assay deals with T1, human CD22 domain5-7-His. The assay can be described thus: ELISA, human CD22 domain5-7-His coated. (In an ELISA, binding on a coated surface is turned into a signal by an enzyme label.)
For B1, the binding result is on record as “no binding (tested: 100 nM)”. For B2, the binding result was “no binding (tested: 100 nM)”.

B3: the binding result is listed as “no binding (tested: 100 nM)”. The same measure, in the same setting: for B4 the value was “no binding (tested: 100 nM)”; for B5, “no binding (tested: 100 nM)”; for B6, “no binding (tested: 100 nM)”. With B7, the concentration giving a half-maximal response (EC50 (read off the curve)) (in general, the concentration that produces a half-maximal response) was about 0.1 nM. Regarding B8, the half-maximal effective concentration (EC50 (read off the curve)) was about 0.03 nM.

Source of the values: patent publication US20240084003A1 (SIMCERE ZAIMING PHARMACEUTICAL, published 2024).
